Source: patent US20210269517A1, “METHOD OF TREATING WASTING DISORDERS” (CSL Limited, priority 2018, published 2021)

Legend:
[1] = system: visceral epididymal adipose tissue; assay: Forskolin-stimulated lipolysis in adipose tissue explants in the presence of Atglistatin; format: cell-based, mice; conditions: 5 μM Atglistatin, 10 μM forskolin
Method: Male C57BL/6 wild-type mice and aged matched Vegfb^−/− mice (12 weeks old) were subjected to 14 hours of overnight fasting. Animals were sacrificed using carbon dioxide anaesthetics and visceral epididymal adipose tissue was surgically removed, washed in DPBS, and incubated in prewarmed (37° C.) DMEM (Dulbecco's modified Eagle's medium (DMEM, 1 g/l glucose; GIBCO, Life Technologies, Carlsbad, Calif.) until use. For measurements of forskolin-stimulated lipolysis, the adipose tissue pieces (20±5 mg) were pre-incubated in 200 μl DMEM containing 2% BSA (FA-free; Sigma-Aldrich) or 10 μM forskolin (Sigma-Aldrich) in the presence or absence of or 5 μM Atglistatin (Sigma-Aldrich) in 96-well plates at 37° C., 5% CO2, and 95% humidified atmosphere for 60 min. For measurements of basal lipolysis no pre-incubation was performed. Adipose tissue explants were transferred into 200 μl of identical fresh medium and incubated for further 60 min (=period of measurement) at 37° C., 5% CO2, and 95% humidified atmosphere. FA content was determined from the incubation media using a NEFA kit (Wako chemicals). The total amount of protein was measured by transferring the tissue explants into 1 ml extraction solution (Chloroform/methanol (2:1, v/v), 1% glacial acetic acid) and incubated for 60 min at 37° C. under vigorous shaking. […] Protein content of the adipose tissue explant lysates was determined from the lysed solution using BCA reagent kit (Pierce) and BSA as standard. The rate of lipolysis rate was calculated as the amount of NEFAs/mg protein/hrs. […]
Mice carrying the lox-containing gene construct allowing for Cre recombinase-mediated tissue specific ablation of Vegfb (Vegfb Flox+ mice) were generated by Taconic Artemis (Cologne, Germany). […] FA content was determined from the incubation media using a NEFA kit (Wako chemicals). The total amount of protein was measured by transferring the tissue explants into 1 ml extraction solution (Chloroform/methanol (2:1, v/v), 1% glacial acetic acid) and incubated for 60 min at 37° C. under vigorous shaking. […]

VEGF-B [2] = molecular target: T1, VEGF-B (Mus musculus, UniProt P49766); assay: Body weight and blood glucose in chow-fed and overnight-fasted mice treated with anti-VEGF-B antibody; format: in vivo, C57BL/6 mice; conditions: fed or fasted state (14 h overnight); 400 μg i.p. twice weekly, 3 injections; vs isotype control
T1 construct: endogenous in cells; host or cells: C57BL/6 male mice (in vivo)
T1 sequence (P49766 22-207): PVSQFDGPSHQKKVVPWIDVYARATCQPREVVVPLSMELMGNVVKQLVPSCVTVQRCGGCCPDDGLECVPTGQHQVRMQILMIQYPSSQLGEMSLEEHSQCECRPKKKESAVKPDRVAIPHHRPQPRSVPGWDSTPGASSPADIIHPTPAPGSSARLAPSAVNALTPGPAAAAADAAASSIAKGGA
Method: Male C57BL/6 wild-type mice and aged matched (12 weeks) Vegfb^+/− and Vegfb^−/− mice were subjected to 14 hours of overnight fasting. Body weight and blood glucose levels were recorded before and after fasting. Body weight drop was calculated as a percentage of weight loss determined by recording body weight in the fasted and fed state. Glucose measurements were performed using a Bayer Contour Glucose meter on blood from the tail vein. Statistical analyses were performed using one-way ANOVA.
(§1) C57BL/6 male mice purchased from Janvier labs and injected with 3 consecutive injections intraperitoneally (i.p.) twice weekly with 400 μg of anti-VEGF-B antibody (2H10) or an isotype matched control antibody. At the age of 12-16 weeks animals were subjected to 14 hours of overnight fasting. Body weight and blood glucose levels were determined as described above.

VEGF-B [3] = molecular target: T1, VEGF-B; assay: Plasma NEFAs, glycerol, triglycerides and insulin in fasting-induced lipolysis; format: in vivo, C57BL/6 mice
Method: Male C57BL/6 mice and aged matched Vegfb^+/− and Vegfb^−/− (12 weeks old) mice were subjected to 14 hours of overnight fasting. Animals were sacrificed using carbon dioxide anaesthetics and total blood was removed by cardiac puncture. Blood was centrifuged at 14000 rpm, 4° C. for 10 minutes, serum was separated and frozen in aliquots at −80° C. Commercially available kits were used for enzymatic determination of non-esterified fatty acids (NEFAs; Wako Chemicals), glycerol (Abcam), triglycerides (TAGs; Sigma-Aldrich) and insulin (Mercodia). Statistical analyses were performed using one-way ANOVA.
as §1
C57BL/6 male mice were treated with an anti-VEGF-B antibody (2H10) or an isotype matched control antibody as described above. At the age of 12-16 weeks animals were subjected to 14 hours of overnight fasting, sacrificed using carbon dioxide anaesthetics and total blood removed by cardiac puncture and processed as described above. Enzymatic determination of NEFAs (Wako Chemicals) and glycerol (Abcam), triglycerides (Sigma-Aldrich) and insulin (Mercodia) was performed as previously described.

VEGF-B [4] = molecular target: T1, VEGF-B; assay: Ex vivo lipolysis rate in visceral epididymal adipose tissue of antibody-treated mice; design: species or system C57BL/6 mice; conditions: vs control treated
Method: Male C57BL/6 wild-type mice and aged matched Vegfb^−/− mice (12 weeks old) were subjected to 14 hours of overnight fasting. […] FA content was determined from the incubation media using a NEFA kit (Wako chemicals). The total amount of protein was measured by transferring the tissue explants into 1 ml extraction solution (Chloroform/methanol (2:1, v/v), 1% glacial acetic acid) and incubated for 60 min at 37° C. under vigorous shaking. […] Protein content of the adipose tissue explant lysates was determined from the lysed solution using BCA reagent kit (Pierce) and BSA as standard. The rate of lipolysis rate was calculated as the amount of NEFAs/mg protein/hrs. […]
C57BL/6 male mice purchased from Janvier labs and injected with 3 consecutive injections intraperitoneally (i.p.) twice weekly with 400 μg of anti-VEGF-B antibody (2H10) or an isotype matched control antibody. […] Body weight and blood glucose levels were determined as described above.
C57BL/6 male mice were treated with an anti-VEGF-B antibody (2H10) or an isotype matched control antibody as described above. […] Basal and forskolin-stimulated lipolysis was measured as previously described above.

VEGF-B [5] = molecular target: T1, VEGF-B; assay: Hepatic lipid droplet quantification (adipophilin) during fasting-induced lipolysis; format: in vivo, C57BL/6 mice; conditions: vs control treated
Method: Male C57BL/6 mice and aged matched (12 weeks) Vegfb^+/− and Vegfb^−/− mice were subjected to 14 hours of overnight fasting. Animals were sacrificed using carbon dioxide anaesthetics and livers and hearts were dissected. For Oil Red 0 (ORO) analysis, liver biopsies were embedded in Tissue-Tek® (Sakura) directly on the mould of the cryostat. Cryo sections (12 μm) were immersed either 5 min (liver) or 8 min (heart) in ORO working solution (2.5 g oil red 0 (Sigma-Aldrich), dissolved in 400 ml 99% isopropanol, further diluted 6:10 in H2O, filtered through a […] filter (Corning). Thereafter the sections were submerged for 3 secs in hematoxylin solution followed by short submerging in LiCO3 (for liver) and rinsed for 10 min under running tap water before they were mounted. Stained sections were examined with bright field microscopy. At least 10 frames per animal within each section were photographed with an Axio Vision microscope (Carl Zeiss) at 20× magnification. The amount of neutral lipids was quantified using Axio Vision Run wizard program for liver or heart ORO staining (pixel^2/μm^2). For measurements of lipid droplets, liver biopsies were fixed in 4% PFA for 24 hours and subsequently processed for paraffin embedding using standard procedures and 4 μm sections were prepared. Antigen retrieval was performed using Antigen retrieval solution Ph6 (Dako #S2367) and heating at 98° C. for 10 min. Sections were incubated at 4° C. overnight with guinea pig anti-adipophilin (Fitzgerald) antibody. […] The amount of lipid droplets was quantified using Axio Vision Run wizard program for hepatic adipophilin+staining (pixel^2/μm^2 or arbitrary units).
C57BL/6 male mice purchased from Janvier labs and injected with 3 consecutive injections intraperitoneally (i.p.) twice weekly with 400 μg of anti-VEGF-B antibody (2H10) or an isotype matched control antibody. […] Body weight and blood glucose levels were determined as described above. […]

[6] = chow-fed mice, vs isotype control
[7] = fasted mice, between treatment groups

Molecule: CN(C)C(=O)Nc1cccc(-c2ccc(N(C)C)cc2)c1 [Atglistatin]
- Forskolin-stimulated lipolysis rate ([1]; explants of AdiCre/Vegfb Flox+, WT/WT, WT/Vegfb Flox+ and AdiCre/WT mice): inhibited
- Forskolin-stimulated lipolysis ([1]; explants of anti-VEGF-B and control treated C57BL/6 mice): decreased
- Forskolin-stimulated lipolysis ([1]; explants of wild-type and Vegfb−/− mice): decreased

B1: 2H10: anti-VEGF-B antibody comprising a VH of SEQ ID NO: 3 and a VL of SEQ ID NO: 4 (antibody, V domains shown)
VH: VQLQQPGTELVKPGASVKLSCKASGYTFTGFWIHWVKQRPGQGLEWIGHINPGNGGTNYNEKFKRMATLTVDKSSSTAYMQLSSLTSEDSAVYYCARSYSNYVRAMDYWGQGTSVTVSS
VL: IQMTQTTSSLSASLGDRVTISCRASQDISNFLNWYQQKPDGTVKLLIYYTSTLHSGVPSRFSGSGSGTDYSLTISNLEQEDIATYFCQQGKTLPPTFGGGTKLEIK
modifications: amino acid sequence from a VH of antibody 2H10; amino acid sequence from a VL of antibody 2H10
- Blood glucose levels (VEGF-B [2]): does not Influence
- Body weight (VEGF-B [2]): does not Influence
- Plasma insulin levels (VEGF-B [3]; [6]): significant increase
- Plasma levels of NEFAs (VEGF-B [3]; [6]): did not alter
- Plasma levels of TAGs (VEGF-B [3]; [6]): did not alter
- Plasma levels of glycerol (VEGF-B [3]; [6]): did not alter
- Plasma levels of NEFAs (VEGF-B [3]; fasted mice (14 h overnight)): not increased
- Plasma levels of glycerol (VEGF-B [3]; fasted mice (14 h overnight)): not increased
- Fasting plasma TAG levels (VEGF-B [3]; [7]): No differences
- Fasting plasma insulin levels (VEGF-B [3]; [7]): No differences
- Forskolin-stimulated lipolysis rate (VEGF-B [4]; 10 μM forskolin): No effect
- Basal lipolysis rate (VEGF-B [4]; adipose tissue of fasted mice): significantly reduces
- Hepatic lipid accumulation (VEGF-B [5]; fasting conditions (fasting-induced lipolysis)): inhibited
- Hepatic lipid accumulation (VEGF-B [5]; fasting conditions (fasting-induced lipolysis), listed as anti-VEGF-B): significantly reduced
- Hepatic lipid accumulation (VEGF-B [5]; fed conditions): significantly reduced
